The results in this text go back to US20100075898A1 (BEN GURION UNIVERSITY OF THE NEGEV RESEARCH AND DEVELOPMENT …, published 2010).

The target of data set [1] is T1, Δ(1-26)mVDAC1 (N-terminal truncated mouse VDAC1 lacking amino acids 1-26).
T1 chain: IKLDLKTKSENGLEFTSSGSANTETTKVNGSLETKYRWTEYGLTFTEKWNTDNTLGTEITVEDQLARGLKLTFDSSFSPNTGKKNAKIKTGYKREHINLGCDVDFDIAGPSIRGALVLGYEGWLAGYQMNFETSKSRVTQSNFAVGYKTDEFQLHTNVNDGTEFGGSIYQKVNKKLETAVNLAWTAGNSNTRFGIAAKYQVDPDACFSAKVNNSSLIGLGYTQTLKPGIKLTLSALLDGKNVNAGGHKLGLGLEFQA

Data set [2] concerns the target T2, native mVDAC1 (mouse VDAC1).
T2 chain: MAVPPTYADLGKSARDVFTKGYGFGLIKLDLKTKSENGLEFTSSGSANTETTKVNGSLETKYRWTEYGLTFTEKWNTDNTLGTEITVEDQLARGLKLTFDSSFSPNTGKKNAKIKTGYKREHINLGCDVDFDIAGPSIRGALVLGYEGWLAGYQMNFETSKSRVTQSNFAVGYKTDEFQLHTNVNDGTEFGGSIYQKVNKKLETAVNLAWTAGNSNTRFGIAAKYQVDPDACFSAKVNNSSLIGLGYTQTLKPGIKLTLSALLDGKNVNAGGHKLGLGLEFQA

Data set [3] concerns the target T3, purified rat brain HK-I (Hexokinase 1) (rat, UniProt P05708 1-918).
T3 construct: Purified from rat brain; immobilised on the SPR chip or added (28 mU/ml) to bilayer-reconstituted VDAC1; also called HK-1
T3 sequence (looked up): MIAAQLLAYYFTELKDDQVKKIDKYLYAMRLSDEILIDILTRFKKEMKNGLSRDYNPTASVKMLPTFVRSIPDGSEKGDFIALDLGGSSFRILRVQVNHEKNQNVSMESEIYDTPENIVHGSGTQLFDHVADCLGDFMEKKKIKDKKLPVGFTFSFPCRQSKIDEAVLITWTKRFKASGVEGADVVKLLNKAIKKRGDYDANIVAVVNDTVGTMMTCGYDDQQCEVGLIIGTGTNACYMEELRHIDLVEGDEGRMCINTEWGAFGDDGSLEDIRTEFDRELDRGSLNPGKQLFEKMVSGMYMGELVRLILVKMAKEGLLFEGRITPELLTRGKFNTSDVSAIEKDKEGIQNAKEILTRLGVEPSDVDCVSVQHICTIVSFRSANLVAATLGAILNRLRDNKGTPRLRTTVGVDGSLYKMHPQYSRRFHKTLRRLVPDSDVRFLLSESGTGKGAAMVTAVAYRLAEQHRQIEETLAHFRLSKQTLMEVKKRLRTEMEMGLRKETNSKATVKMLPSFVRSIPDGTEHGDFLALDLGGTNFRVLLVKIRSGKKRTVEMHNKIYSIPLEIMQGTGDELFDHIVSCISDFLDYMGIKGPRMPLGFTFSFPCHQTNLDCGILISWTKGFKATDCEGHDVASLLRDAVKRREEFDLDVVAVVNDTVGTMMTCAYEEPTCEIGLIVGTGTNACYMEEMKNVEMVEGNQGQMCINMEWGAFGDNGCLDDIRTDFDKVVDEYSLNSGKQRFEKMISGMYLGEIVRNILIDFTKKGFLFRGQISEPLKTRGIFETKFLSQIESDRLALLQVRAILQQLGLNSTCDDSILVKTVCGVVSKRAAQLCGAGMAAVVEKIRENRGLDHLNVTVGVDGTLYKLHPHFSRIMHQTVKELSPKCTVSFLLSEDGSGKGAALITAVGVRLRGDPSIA
The experiment in a line: channel currents of planar-lipid-bilayer-reconstituted mVDAC1 before and after addition of HK-I (28 mU/ml). The protocol: (§1) The dashed lines indicate the zero and the maximal current levels.
(§2) Briefly, PLB were prepared from soybean asolectin dissolved in n-decane (50 mg/ml) in a chamber containing 10 mM Hepes/KOH, pH 7.4 and 0.5 or 1M NaCl (cis/trans). Only PLBs with a resistance greater than 100 GΩ were used. Purified VDAC (about 1 ng) was added to the chamber defined as the cis side. After insertion of one or more channels into the PLB, excess protein was removed by perfusion of the cis chamber with 20 volumes of a same solution. Currents were recorded under voltage-clamp mode using a Bilayer Clamp amplifier (Warner Instruments, Hamden, Conn.). Currents were measured with respect to the trans side of the membrane (ground). The currents were low-pass filtered at 1 kHz, using a Bessal filter (Frequency Devices, Haverhill, Mass.) and digitized on-line using a Digidata 1200 interface board and pCLAMP 6 software (Axon Instruments). Sigma Plot 2000 scientific software was used for data analyses. Experiments were performed at 23-25° C. […] N-terminal VDAC1 peptides were diluted in running buffer (150 mM NaCl, 0.005% Tween-20, 4% (V/V) DMSO, 10 mM PBS, pH, 7.4) and injected onto the sensor chip at varying concentrations at a flow rate of 40 μl/min at 25° C.

In data set [4] the target is T3, purified rat brain HK-I (Hexokinase 1). In words: channel currents of planar-lipid-bilayer-reconstituted VDAC1 before and after addition of HK-I. The protocol: as §1, §2

B1: purified rat brain HK-I (Hexokinase 1) (protein)
chain: T3 sequence (looked up)
On to B1, for which the “channel activity (currents) of bilayer-reconstituted VDAC1” value in data set [1] was “HK-I had no effect on channel activity of the truncated version of VDAC1”; in data set [2], “addition of HK-I to bilayer-reconstituted native VDAC1 induced the channel to fluctuate between the fully open, sub-conducting state to a stable, long-lived low-conducting state”.

B2: native mVDAC1 (mouse VDAC1) (other)
chain: T2 chain
notes: Native full-length mouse VDAC1 expressed in porin-less yeast, purified and reconstituted into planar lipid bilayers; also called native VDAC1; bilayer-reconstituted native VDAC1
Take B2: in data set [3], the binding result is “binds”.

B3: Δ(1-26)mVDAC1 (N-terminal truncated mouse VDAC1 lacking amino acids 1-26) (other)
chain: T1 chain
notes: Expressed in porin-less yeast, purified and reconstituted into planar lipid bilayers; also called N-terminus truncated protein; truncated version of VDAC1
Turning to B3, in data set [4], the binding result is recorded as “no binding (tested: 28 mU/ml)”.
